{"source": "paper doi:10.1101/2024.07.24.604858", "about": "(bioRxiv, 2024)", "binders": {"B1": {"name": "mAb 0786 wt (antibody, V domains shown)", "VH": "EVQLVESGGGLVQPGRSLRLSCTTSGFTFGDFAMSWVRQAPGKGLEWVGFIRSKANGGSTEYAASVKGRFTISRDDSKSIAYLQMDSLKTEDTAVYYCCRVWIQLWPLDYWGQGTLVTVSS", "VL": "EIVLTQSPGTLSLSPGERATLSCRASQSIGSSYLAWYQLKPGQAPRLLIYGASSRATGIPDRFSGSGSGTDFTLIISRLEPEDFAVYFCQQYGRSPWTFGQGTKVEIK"}, "B2": {"name": "mAb 0786 with H.N56 reverted to the GL Tyr (antibody, V domains shown)", "VH": "B1 VH with N56Y", "VL": "B1 VL"}, "B3": {"name": "mAb 0786 with Arg introduced at H.59 (antibody, V domains shown)", "VH": "B1 VH with S59R", "VL": "B1 VL"}, "B4": {"name": "mAb 0786 with H.A63P (antibody, V domains shown)", "VH": "B1 VH with A63P", "VL": "B1 VL"}}, "note": "Positions count from the first letter of the chain named. Names and notes keep the numbering of the source."}
{"molecular_target": "T1, PfCSP N-junction peptide NPDP_(20aa) (Plasmodium falciparum (matches 3D7 …))", "T1 chain": "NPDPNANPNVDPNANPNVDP", "assay": "SPR"}
{"binder": "B1", "binding result": "binds"}
{"binder": "B2", "binding result": "binds"}
{"binder": "B3", "binding result": "binds"}
{"binder": "B4", "binding result": "binds"}
{"molecular_target": "T2, PfCSP central repeat peptide NANP_(20aa) (Plasmodium falciparum (repeat peptide, …))", "T2 chain": "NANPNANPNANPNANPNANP", "assay": "SPR"}
{"binder": "B1", "binding result": "binds"}
{"binder": "B2", "binding result": "binds"}
{"binder": "B3", "binding result": "binds"}
{"binder": "B4", "binding result": "binds"}
